PMC3514788 (The Journal of Cell Biology, 2012)
Each block holds one molecule with its values, some of them ahead of it.

B1: Drg1 (enzyme)
chain: MAPKSSSSGSKKKSSASSNSADAKASKFKLPAEFITRPHPSKDHGKETCTAYIHPNVLSSLEINPGSFCTVGKIGENGILVIARAGDEEVHPVNVITLSTTIRSVGNLILGDRLELKKAQVQPPYATKVTVGSLQGYNILECMEEKVIQKLLDDSGVIMPGMIFQNLKTKAGDESIDVVITDASDDSLPDVSQLDLNMDDMYGGLDNLFYLSPPFIFRKGSTHITFSKETQANRKYNLPEPLSYAAVGGLDKEIESLKSAIEIPLHQPTLFSSFGVSPPRGILLHGPPGTGKTMLLRVVANTSNAHVLTINGPSIVSKYLGETEAALRDIFNEARKYQPSIIFIDEIDSIAPNRANDDSGEVESRVVATLLTLMDGMGAAGKVVVIAATNRPNSVDPALRRPGRFDQEVEIGIPDVDARFDILTKQFSRMSSDRHVLDSEAIKYIASKTHGYVGADLTALCRESVMKTIQRGLGTDANIDKFSLKVTLKDVESAMVDIRPSAMREIFLEMPKVYWSDIGGQEELKTKMKEMIQLPLEASETFARLGISAPKGVLLYGPPGCSKTLTAKALATESGINFLAVKGPEIFNKYVGESERAIREIFRKARSAAPSIIFFDEIDALSPDRDGSSTSAANHVLTSLLNEIDGVEELKGVVIVAATNRPDEIDAALLRPGRLDRHIYVGPPDVNARLEILKKCTKKFNTEESGVDLHELADRTEGYSGAEVVLLCQEAGLAAIMEDLDVAKVELRHFEKAFKGIARGITPEMLSYYEEFALRSGSSS
B2: GST-Nup116 fragment from the N terminus to residue 172 (domain or fragment)
chain: MFGVSRGAFPSATTQPFGSTGSTFGGQQQQQQPVANTSAFGLSQQTNTTQAPAFGNFGNQTSNSPFGMSGSTTANGTPFGQSQLTNNNASGSIFGGMGNNTALSAGSASVVPNSTAGTSIKPFTTFEEKDPTTGVINVFQSITCMPEYRNFSFEELRFQDYQAGRKFGTSQN

Columns and labels:
[1] = target: GST-Rlp24C (S. cerevisiae) (UniProt Q07915); experiment: SPR
[2] = target: the molecule itself
Drg1 = target: B1; experiment: pull-down

GST-Rlp24C (S. cerevisiae), sequence (Q07915 147-199): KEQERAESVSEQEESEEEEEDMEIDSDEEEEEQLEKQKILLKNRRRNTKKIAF

- fold RU against the wild-type and EQ2 proteins [1]: 4 fold
- kon2 (two-state reaction) [1]: 0.011 s⁻¹
Molecule: Drg1EQ1 (from UniProt P32794 1-780) (enzyme)

Molecule: B1
- stoichiometry N [2]: 6

Molecule: B2
- binding result (Drg1): binds
